Legend:
[1] = target: BG505 gp140.681.R1-1NOG trimer (HIV-1 BG505, UniProt Q2N0S6); experiment: BLI
[2] = target: BG505 gp140.681.R1-1V6H trimer (HIV-1 BG505, UniProt Q2N0S6); experiment: BLI

B1: PGDM1400 (protein)
chain 1: DFVLTQSPHSLSVTPGESASISCKSSHSLIHGDRNNYLAWYVQKPGRSPQLLIYLASSRASGVPDRFSGSGSDKDFTLKISRVETEDVGTYYCMQGRESPWTFGQGTKVDIKRTVAAPSVFIFPPSDEQLKSGTASVVCLLNNFYPREAKVQWKVDNALQSGNSQESVTEQDSKDSTYSLSSTLTLSKADYEKHKVYACEVTHQGLSSPVTKSFNRGEC
chain 2: QAQLVQSGPEVRKPGTSVKVSCKAPGNTLKTYDLHWVRSVPGQGLQWMGWISHEGDKKVIVERFKAKVTIDWDRSTNTAYLQLSGLTSGDTAVYYCAKGSKHRLRDYALYDDDGALNWAVDVDYLSNLEFWGQGTAVTVSSASTKGPSVFPLAPSSKSTSGGTAALGCLVKDYFPEPVTVSWNSGALTSGVHTFPAVLQSSGLYSLSSVVTVPSSSLGTQTYICNVNHKPSNTKVDKKVEPKSCD
Q: How did the Kd [1] turn out when B1 was run?
A: 4.7 nM

Q: And the Kd [2]?
A: 5.1 nM
